Measured values as given in article PMC4363203.

Target: centromere protein A (CENP-A), histone H3 variant (human (endogenous in HcoEpiC, HeLa and SW480)) (UniProt P49450)
Assay: co-IP; sequential native CENP-A IP of the chromatin left unbound by the CENP-B IP ('ectopic CENP-A'); SW480 cells; quantitative fluorescent western blot, background-corrected, input-adjusted ratio to the CENP-B IP

UniProt P49450, sequence (P49450 whole entry, change not shown): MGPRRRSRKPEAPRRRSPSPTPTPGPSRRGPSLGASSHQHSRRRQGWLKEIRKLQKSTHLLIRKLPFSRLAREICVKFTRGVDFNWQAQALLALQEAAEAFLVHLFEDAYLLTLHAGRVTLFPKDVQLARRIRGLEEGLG

## ATRX, transcription-coupled histone chaperone (from UniProt P46100 1-2492) (natural protein)
  ATRX fold enrichment (Seq. CpA IP/CpB IP): 0.81 fold

## canonical histone H3 (from UniProt P68431 1-136) (natural protein)
  H3 fold enrichment (Seq. CpA IP/CpB IP): 2.91 fold
